Drawing on patent US7127357, this text covers fold reduction in binding affinity (against wild type Pin1) and Kd for 4 substances.

Experiment [1] has as its target YpSPTpSPS (CTD-S2/S5), doubly phosphorylated CTD peptide (human). Kind of experiment: fluorescence anisotropy. For orientation: Polarisation of emitted light reports the rotation of a fluorescent probe.
For experiment [2] the target is unchanged. Kind of experiment: fluorescence anisotropy, labeled peptide constant, protein varied.
The target of experiment [3] is STSpTPR (Myt1-T455), rhodamine-labeled (human). Described as above.
In experiment [4] the target is YpSPTSPS (CTD-S2), rhodamine-labeled (human). The description is as above.
The target in experiment [5] is PPApTPP (Myt1-T412), rhodamine-labeled (human). The experiment is described as above.
Experiment [6] concerns the target PPGpSPP (Myt1-S416), rhodamine-labeled (human). The experiment is described as above.
Experiment [7] deals with LYRpSPS (Cdc25c-S214), rhodamine-labeled (human). The experiment is described as above.
In experiment [8] the target is WFYpSPFLE (Pintide), rhodamine-labeled. Described as above.
Experiment [9] has as its target YSPTpSPS (CTD-S5), rhodamine-labeled (human). Described as above.
Experiment [10] deals with YLGpSPI (Cdc25c-S168), rhodamine-labeled (human). The description is as above.
Experiment [11] deals with VPRpTPV (Cdc25c-T48), rhodamine-labeled (human). The experiment is described as above.
Experiment [12] has as its target GSSpSPV (Wee1-S123), rhodamine-labeled (human). Described as above.

Substance “Pin1 Trp-34 to Phe mutant (from UniProt Q13526 1-163) (enzyme)” yielded a fold reduction in binding affinity (against wild type Pin1) in experiment [1] of 6 fold.
For the substance “human Pin1 (full length, wild type) (from UniProt Q13526 1-163) (enzyme)”, the Kd is 10 µM in experiment [2]; 46 µM in experiment [3]; 61 µM in experiment [4]; 12 µM in experiment [5]; 80 µM in [6]; 47 µM in [7]. Also, the Kd came out at 17 µM in experiment [8]; 30 µM in [9]; 69 µM in experiment [10]; 4.9 µM in experiment [11]; 73 µM in experiment [12].
Consider “isolated PPIase domain of human Pin1 (from UniProt Q13526 50-163) (enzyme)”, for which the Kd in experiment [2] came out at 390 µM; in experiment [8], 86 µM.
As for “isolated WW domain of human Pin1 (from UniProt Q13526 1-39)”, the Kd in experiment [2] was 34 µM; in experiment [3], 39 µM; in [4], 110 µM; in experiment [5] it was 15 µM; in [6], 126 µM; in experiment [7], 72 µM. In addition, the Kd in experiment [8] was 44 µM; in [9], 34 µM; in experiment [10], 91 µM; in experiment [11] it was 7.7 µM.

The Kd is the free concentration of one partner at which half of the binding sites on the other are occupied at equilibrium, for simple one-to-one binding. A high value points to weaker binding.
